Assay results taken from patent publication EP4644549A1, “ANTIMICROBIAL PEPTIDE AND METHOD FOR PRODUCING SAME” (Sumitomo Chemical Company, Limited, priority 2022, dated 2025).
Ends that are not written are not given here.

Tests used:
Candida albicans = test: Antimicrobial activity test in liquid culture (growth by OD630); type: cell-based; design: key: +: Antimicrobial activity observed; -: No antimicrobial activity observed; conditions: Test conc. 25 µM; culturing 24 to 48 hours
Experimental: (§1) As a Comparative Example, a commercially available nisin A (manufactured by Sigma-Aldrich) was used. Firstly, each peptide was dissolved in MRS medium to prepare a solution of a concentration of 20 µM to 1000 µM. From the resultant, 10 µl was taken and mixed with various test bacteria and 90 µl of medium intended for culturing the test bacteria, followed by culturing for 24 hours to 48 hours. After culturing, OD630 was measured to check the number of bacteria. When OD630 increased or turbidity was visually observed as compared to the culture liquid before culturing, it can be determined that the test bacteria had grown. […] In the "SEQ ID NO or substance name of peptide" section in Table 5, each of "SEQ ID NO: 3 & SEQ ID NO: 4" and "SEQ ID NO: 13 & SEQ ID NO: 14" means that a combination of the two types of peptides were used in equimolar amounts. The results in Table 5 indicate that the polypeptides as set forth in SEQ ID NOs: 1 to 5, 13, and 14 were effective against gram-positive bacteria and some of these polypeptides were effective against gram-negative bacteria such as E. coli and fungi such as C. albicans.

Lactobacillus sakei = test: as above; type: cell-based; design: key: +: Antimicrobial activity observed; -: No antimicrobial activity observed; conditions: Test conc. 25 µM; culturing 24 to 48 hours
Experimental: as §1

Staphylococcus aureus = test: as above; type: cell-based; design: key: +: Antimicrobial activity observed; -: No antimicrobial activity observed; conditions: Test conc. 25 µM; culturing 24 to 48 hours
Experimental: as §1

Escherichia coli = test: as above; type: cell-based; design: key: +: Antimicrobial activity observed; -: No antimicrobial activity observed; conditions: Test conc. 25 µM; culturing 24 to 48 hours
Experimental: as §1

Streptococcus uberis = test: as above; type: cell-based; design: key: +: Antimicrobial activity observed; -: No antimicrobial activity observed; conditions: Test conc. 25 µM; culturing 24 to 48 hours
Experimental: as §1

[1] = tested on: Lactobacillus sakei (NBRC15893); test: Thermal stability test (spot-on-lawn antimicrobial activity after heat treatment); type: physicochemical; design: key: A: Good activity; B: Slight influence on activity; C: No activity; conditions: in water, ten times the lowest concentration of Table 3, A = spot diameter 80% or more of control with no heat treatment
Experimental: Antimicrobial activity of the antimicrobial peptide was evaluated by a spot-on-lawn method that involved spotting 10 µL of a test liquid 13 on the test bacteria (lawn) (on a soft agar medium 11) (Fig. 1). As the test bacteria, Lactobacillus sakei (NBRC15893) was used. The specific procedure is as follows. Firstly, the test bacteria that were cultured overnight were mixed and diluted with Lactobacilli AOAC agar (soft agar medium 11) in a density of 4×10^7 CFU/mL, and was spread over an MRS plate containing 2% agar (an agar medium 12). Test liquid 13 was spotted thereon, and incubated overnight at 30°C, followed by evaluation of the size of a growth inhibition circle 14 (Fig. 1). It can be determined that the larger the growth inhibition circle, the higher the antimicrobial activity. The fraction with highest antimicrobial activity as determined in the antimicrobial activity test was regarded as a purified active fraction and used in Experiment 4 and Experiment 5 described below. For the polypeptides as set forth in SEQ ID NOs: 1 to 5, 13, and 14 in Table 3, evaluation was carried out to see if they had antimicrobial activity after heat treatment. As a Comparative Example, a commercially available nisin A (manufactured by Sigma-Aldrich) was used. Firstly, each peptide was dissolved in water to prepare a solution of a concentration ten times the lowest concentration specified in Table 3. The test solution thus prepared was subjected to heat treatment at 80°C for 30 minutes, or at 100°C for 30 minutes, or at 121°C for 15 minutes. […] Antimicrobial activity was evaluated based on the size of the spot (the size of the growth inhibition circle); when the size of the spot was equivalent to that of the control (when the diameter of the spot was 80% or more of the control), it was rated as A, and when the size was relatively small but activity was still detected, it was rated as B. When the spot was not observed, it was rated as C. It can be determined that the peptides rated as A or B are stable at the test temperatures. […]

[2] = tested on: Lactobacillus sakei (NBRC15893); test: Wide pH-range stability test (spot-on-lawn antimicrobial activity after incubation in buffer); type: physicochemical; design: key: A: Good activity; B: Slight influence on activity; C: No activity; conditions: ten times the lowest concentration of Table 3, A = spot diameter 80% or more of control in water
Experimental: Antimicrobial activity of the antimicrobial peptide was evaluated by a spot-on-lawn method that involved spotting 10 µL of a test liquid 13 on the test bacteria (lawn) (on a soft agar medium 11) (Fig. 1). As the test bacteria, Lactobacillus sakei (NBRC15893) was used. The specific procedure is as follows. Firstly, the test bacteria that were cultured overnight were mixed and diluted with Lactobacilli AOAC agar (soft agar medium 11) in a density of 4×10^7 CFU/mL, and was spread over an MRS plate containing 2% agar (an agar medium 12). Test liquid 13 was spotted thereon, and incubated overnight at 30°C, followed by evaluation of the size of a growth inhibition circle 14 (Fig. 1). It can be determined that the larger the growth inhibition circle, the higher the antimicrobial activity. The fraction with highest antimicrobial activity as determined in the antimicrobial activity test was regarded as a purified active fraction and used in Experiment 4 and Experiment 5 described below. For the polypeptides as set forth in SEQ ID NOs: 1 to 5, 13, and 14 in Table 3, evaluation was carried out to see if they had antimicrobial activity over a wide range of pH. As a Comparative Example, a commercially available nisin A (manufactured by Sigma-Aldrich) was used. Firstly, each peptide was dissolved in the following buffer to prepare a solution of a concentration ten times the lowest concentration specified in Table 3: sodium phosphate buffer (50 mM, pH4), 1x phosphate buffer saline (pH7.4), ammonium chloride-ammonia buffer (50 mM, pH10.0). […] Antimicrobial activity was evaluated based on the size of the spot (the size of the growth inhibition circle). When the size of the spot was equivalent to that of the control (when the diameter of the spot was 80% or more of the control), it was rated as A, and when the size was relatively small but antimicrobial activity was still detected, it was rated as B. When the growth inhibition circle was not observed, it was rated as C. It can be determined that the peptides rated as A or B are stable at the test pHs. […]

nisin A (ITSISLCTPGCKTGALMGCNMKTATCHCSIHVSK; thioether (positions not given here); not fully specified (some residues, bridges); also: lantibiotic: thioether rings and dehydro residues not placed; UniProt P13068 24-57, looked up) [antimicrobial peptide produced by Lactococcus lactis]
Antimicrobial activity, test bacteria Candida albicans (Candida albicans): - | Antimicrobial activity, test bacteria Lactobacillus sakei (Lactobacillus sakei): + | Antimicrobial activity, test bacteria Staphylococcus aureus (Staphylococcus aureus): + | Antimicrobial activity, test bacteria Escherichia coli (Escherichia coli): - | Antimicrobial activity, test bacteria Streptococcus uberis (Streptococcus uberis): + | Thermostability 80°C ([1]; 80°C for 30 minutes): C | Thermostability 100°C ([1]; 100°C for 30 minutes): C | Thermostability 121°C ([1]; 121°C for 15 minutes (autoclave)): C | pH Stability pH7 ([2]; 1x phosphate buffer saline (pH7.4), 27°C for 24 hours): C | pH Stability pH10 ([2]; ammonium chloride-ammonia buffer 50 mM pH10.0, 27°C for 24 hours): C | pH Stability pH4 ([2]; sodium phosphate buffer 50 mM pH4, 27°C for 24 hours): A
